The values that follow come from article PMC6656757, “Structural insights into E1 recognition and the ubiquitin-conjugating activity of the E2 enzyme Cdc34” (Nature Communications, 2019).

One test deals with T1, S. pombe Uba1 (S. pombe) (UniProt O94609).
T1 sequence: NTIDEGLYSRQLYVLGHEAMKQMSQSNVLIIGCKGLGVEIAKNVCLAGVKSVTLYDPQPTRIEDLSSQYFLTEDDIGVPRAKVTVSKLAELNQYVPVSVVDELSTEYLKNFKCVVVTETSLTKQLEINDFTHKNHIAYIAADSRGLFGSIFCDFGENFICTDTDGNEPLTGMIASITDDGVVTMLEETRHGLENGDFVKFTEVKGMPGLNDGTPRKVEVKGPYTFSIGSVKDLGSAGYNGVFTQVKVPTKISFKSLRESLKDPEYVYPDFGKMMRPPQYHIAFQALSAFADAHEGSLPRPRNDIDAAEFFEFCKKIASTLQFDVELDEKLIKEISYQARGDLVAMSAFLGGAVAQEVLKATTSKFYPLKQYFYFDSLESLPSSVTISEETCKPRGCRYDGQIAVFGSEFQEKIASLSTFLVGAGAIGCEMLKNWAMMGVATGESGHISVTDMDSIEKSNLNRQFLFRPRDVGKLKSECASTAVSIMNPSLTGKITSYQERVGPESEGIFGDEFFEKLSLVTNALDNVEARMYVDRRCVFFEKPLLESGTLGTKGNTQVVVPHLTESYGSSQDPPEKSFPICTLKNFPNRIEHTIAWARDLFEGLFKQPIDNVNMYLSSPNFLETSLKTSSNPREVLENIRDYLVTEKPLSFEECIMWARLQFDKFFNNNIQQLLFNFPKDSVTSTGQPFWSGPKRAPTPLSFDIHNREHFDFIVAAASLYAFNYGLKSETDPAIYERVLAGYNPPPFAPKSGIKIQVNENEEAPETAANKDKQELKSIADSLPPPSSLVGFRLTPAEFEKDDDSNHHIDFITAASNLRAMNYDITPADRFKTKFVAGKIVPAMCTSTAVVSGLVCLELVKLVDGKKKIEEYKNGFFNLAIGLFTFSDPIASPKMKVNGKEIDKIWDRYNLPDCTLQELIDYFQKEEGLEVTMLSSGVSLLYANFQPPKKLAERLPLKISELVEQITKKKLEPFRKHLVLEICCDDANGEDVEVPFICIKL

Test [1] has as its target T2, S. cerevisiae Uba1 (a.a. 11–1024) (S. cerevisiae, UniProt P22515 11-1024, in the crystal: disulfide bond between the Uba1 and Cdc34 catalytic cysteines (cross-link)).
T2 construct: residues 11-773 and 797-1024 built in the model; Cross-linked to Cdc34 only for the crystal; not cross-linked in the thioester transfer assays; also called ScUba1; E1; source: E. coli BL21 (DE3) Codon Plus, purified (Ni-NTA, gel filtration, MonoQ)
The test can be described thus: crystal structure; S. cerevisiae Uba1-Cdc34^Δdist held by a disulfide bond between the catalytic cysteines, mixed with Ub, 1 mM ATP and 5 mM MgCl2; crystals at 18 °C in 0.2 M ammonium sulfate, 25% PEG 3,350, 0.1 M Bis-Tris pH 6.5; 2.07 Å; two copies in the asymmetric unit. The conditions noted are these: both partners purified.

T2 sequence (P22515 11-1024): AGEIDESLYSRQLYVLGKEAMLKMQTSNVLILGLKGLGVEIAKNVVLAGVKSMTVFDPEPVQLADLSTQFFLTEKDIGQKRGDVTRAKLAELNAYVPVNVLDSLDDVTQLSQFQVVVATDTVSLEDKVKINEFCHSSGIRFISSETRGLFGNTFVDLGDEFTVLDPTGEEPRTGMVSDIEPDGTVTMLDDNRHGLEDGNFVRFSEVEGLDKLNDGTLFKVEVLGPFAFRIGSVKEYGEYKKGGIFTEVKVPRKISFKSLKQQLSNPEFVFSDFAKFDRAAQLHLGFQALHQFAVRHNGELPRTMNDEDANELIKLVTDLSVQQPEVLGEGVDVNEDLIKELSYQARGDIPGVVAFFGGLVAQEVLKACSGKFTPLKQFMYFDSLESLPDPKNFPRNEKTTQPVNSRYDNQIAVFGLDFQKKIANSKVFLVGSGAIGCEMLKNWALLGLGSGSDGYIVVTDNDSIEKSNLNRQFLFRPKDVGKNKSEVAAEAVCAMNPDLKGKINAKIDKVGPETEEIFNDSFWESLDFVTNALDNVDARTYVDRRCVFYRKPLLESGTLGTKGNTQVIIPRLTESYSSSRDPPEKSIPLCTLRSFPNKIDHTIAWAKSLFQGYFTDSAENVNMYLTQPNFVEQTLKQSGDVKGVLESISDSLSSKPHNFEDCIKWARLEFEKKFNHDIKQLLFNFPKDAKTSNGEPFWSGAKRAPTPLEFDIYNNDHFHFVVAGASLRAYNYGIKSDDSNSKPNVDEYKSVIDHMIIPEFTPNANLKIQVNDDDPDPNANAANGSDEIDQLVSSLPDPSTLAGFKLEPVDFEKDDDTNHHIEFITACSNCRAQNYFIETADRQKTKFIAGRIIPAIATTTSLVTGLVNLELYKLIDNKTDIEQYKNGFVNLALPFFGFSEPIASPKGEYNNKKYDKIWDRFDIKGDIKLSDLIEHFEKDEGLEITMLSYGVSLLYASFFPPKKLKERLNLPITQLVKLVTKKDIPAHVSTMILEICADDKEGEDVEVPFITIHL

Take “Ubc4 K4S (from UniProt P46595 1-147) (enzyme)”: the E1-E2 thioester transfer assay: Ubc4 K4S (fold loss of activity) with S. pombe Uba1 (S. pombe) amounted to 2.

B1: Ubc15 K12A (enzyme)
chain: MPSSASEQLLRAQLKEIQKNPPQGFSVGLVDDKSIFEWEVMIIGPEDTLYEGGFFHATLSFPQDYPLMPPKMKFTTEIWHPNVHPNGEVCISILHPPGDDKYGYEDAGERWLPVHSPETILISVISMLSSPNDESPANIDAAKEFRENPQEFKKRVRRLVRRSIEMI
In turn, B1 returned an E1-E2 thioester transfer assay (50 nM E1, 60 s): Ubc15 K12A (fold loss of activity) with S. pombe Uba1 (S. pombe) of 5.

B2: S. cerevisiae Cdc34^Δdist (enzyme, UniProt P14682 1-195, looked up)
chain: MSSRKSTASSLLLRQYRELTDPKKAIPSFHIELEDDSNIFTWNIGVMVLNEDSIYHGGFFKAQMRFPEDFPFSPPQFRFTPAIYHPNVYRDGRLCISILHQSGDPMTDEPDAETWSPVQTVESVLISIVSLLEDPNINSPANVDAAVDYRKNPEQYKQRVKMEVERSKQDIPKGFIMPTSESAYISQSKLDEPES
modifications: in the crystal with Uba1: disulfide bond between the Uba1 and Cdc34 catalytic cysteines (cross-link)
notes: Cdc34, E2 ubiquitin-conjugating enzyme, S. cerevisiae; construct lacking CTD^dist (residues 196-295), made by a stop codon in Cdc34^FL; residues 3-102 and 112-181 built in the complex; Used here also as the wild-type Cdc34 of the thioester transfer assays with Uba1 mutants; also called ScCdc34^Δdist; source: E. coli BL21 (DE3) Codon Plus, purified
Consider B2, for which the binding result in test [1] was “binds”.
